B1: Serine/threonine-protein kinase plo1 (Schizosaccharomyces pombe (strain ATCC 38366 / 972)), P50528 (parent)
chain: MASVAIKEPKTAITPKKKSKASRLCFTPPTNLHNNKKNIFYTRYDCIGEGGFARCFRVKDNYGNIYAAKVIAKRSLQNDKTKLKLFGEIKVHQSMSHPNIVGFIDCFEDSTNIYLILELCEHKSLMELLRKRKQLTEPEVRYLMMQILGALKYMHKKRVIHRDLKLGNIMLDESNNVKIGDFGLAALLMDDEERKMTICGTPNYIAPEILFNSKEGHSFEVDLWSAGVVMYALLIGKPPFQDKEVKTIYRKIKANSYSFPSNVDISAEAKDLISSLLTHDPSIRPSIDDIVDHEFFHTGYMASTLPDEILHSMPIWPSSQSKSSFQRNLDFVASASGVGFGNSAGVEKNKPYALRTDEVDNDRILPSVLSPRDRVNPVMKIGPETKPVPSKLSTALHAARKSTDGSLGSRVKVLREESQSFVPTKSAVTEQVEPIQLIRSLSANTVSRLSKVGNMKSDIWISVKKTALKIGMALEAHTHALTSEDADSEPVLFITKWVDYSNKYGLGYQLSDESVGVHFNDDTSLLFSADEEVVEYALHPKDTEIKPYIYPASKVPESIRSKLQLLKHFKSYMGQNLSKAVQDESFEKPKNSTSNTMLFMQHYLRTRQAIMFRLSNGIFQFNFLDHRKVVISSTARKIIVLDKERERVELPLQEASAFSEDLRSRLKYIRETLESWASKMEVS
partner: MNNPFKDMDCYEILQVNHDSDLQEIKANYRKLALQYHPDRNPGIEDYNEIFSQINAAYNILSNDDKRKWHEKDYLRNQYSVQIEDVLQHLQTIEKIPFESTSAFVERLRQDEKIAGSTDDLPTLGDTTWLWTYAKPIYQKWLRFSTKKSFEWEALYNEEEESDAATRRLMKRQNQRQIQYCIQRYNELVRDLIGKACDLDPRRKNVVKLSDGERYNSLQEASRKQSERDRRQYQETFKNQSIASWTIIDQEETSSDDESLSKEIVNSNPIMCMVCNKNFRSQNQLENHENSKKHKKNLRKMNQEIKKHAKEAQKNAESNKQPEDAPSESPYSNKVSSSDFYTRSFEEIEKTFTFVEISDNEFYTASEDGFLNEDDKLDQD
B2: Serine/threonine-protein kinase plo1 (Schizosaccharomyces pombe (strain ATCC 38366 / 972)), P50528 (parent)
chain: B1 chain
partner: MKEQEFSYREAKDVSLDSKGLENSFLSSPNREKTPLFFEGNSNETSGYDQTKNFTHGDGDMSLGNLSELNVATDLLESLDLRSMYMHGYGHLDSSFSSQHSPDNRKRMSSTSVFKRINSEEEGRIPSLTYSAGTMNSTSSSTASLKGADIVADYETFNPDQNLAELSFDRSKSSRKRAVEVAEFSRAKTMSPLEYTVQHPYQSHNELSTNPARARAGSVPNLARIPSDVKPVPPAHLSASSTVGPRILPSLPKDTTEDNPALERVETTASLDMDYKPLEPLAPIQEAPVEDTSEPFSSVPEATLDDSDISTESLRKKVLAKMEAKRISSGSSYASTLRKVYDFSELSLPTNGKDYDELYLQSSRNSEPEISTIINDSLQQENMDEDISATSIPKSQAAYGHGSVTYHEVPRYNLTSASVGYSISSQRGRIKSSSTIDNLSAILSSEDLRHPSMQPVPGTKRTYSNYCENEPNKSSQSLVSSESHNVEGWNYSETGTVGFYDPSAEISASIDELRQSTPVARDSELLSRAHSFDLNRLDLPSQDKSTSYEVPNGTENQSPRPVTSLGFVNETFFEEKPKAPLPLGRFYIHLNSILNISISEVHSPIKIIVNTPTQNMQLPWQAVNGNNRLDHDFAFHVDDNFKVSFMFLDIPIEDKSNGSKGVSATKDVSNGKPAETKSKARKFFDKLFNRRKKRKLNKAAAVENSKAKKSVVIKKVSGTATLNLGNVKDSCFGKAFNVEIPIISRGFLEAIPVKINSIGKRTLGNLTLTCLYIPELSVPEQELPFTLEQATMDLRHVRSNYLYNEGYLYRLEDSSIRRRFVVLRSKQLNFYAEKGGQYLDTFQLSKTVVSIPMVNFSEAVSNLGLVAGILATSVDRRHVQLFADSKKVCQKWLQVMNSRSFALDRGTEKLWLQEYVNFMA
B3: Serine/threonine-protein kinase plo1 (Schizosaccharomyces pombe (strain ATCC 38366 / 972)), P50528 (parent)
chain: B1 chain
partner: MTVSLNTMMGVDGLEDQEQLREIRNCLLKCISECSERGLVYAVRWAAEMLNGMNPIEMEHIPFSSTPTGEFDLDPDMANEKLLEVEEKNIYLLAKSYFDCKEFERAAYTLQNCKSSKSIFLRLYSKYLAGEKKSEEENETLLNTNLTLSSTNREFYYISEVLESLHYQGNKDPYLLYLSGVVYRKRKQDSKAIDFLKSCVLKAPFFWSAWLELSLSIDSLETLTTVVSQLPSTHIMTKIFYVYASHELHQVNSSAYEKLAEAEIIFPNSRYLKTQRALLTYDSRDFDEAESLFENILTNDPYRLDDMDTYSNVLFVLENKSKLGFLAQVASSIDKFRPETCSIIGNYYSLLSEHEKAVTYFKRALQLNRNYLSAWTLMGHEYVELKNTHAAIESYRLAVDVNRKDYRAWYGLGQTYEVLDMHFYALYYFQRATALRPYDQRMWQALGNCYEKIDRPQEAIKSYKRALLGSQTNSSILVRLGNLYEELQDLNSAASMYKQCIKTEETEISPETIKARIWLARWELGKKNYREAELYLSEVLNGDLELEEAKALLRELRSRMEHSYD
B4: Serine/threonine-protein kinase plo1 (Schizosaccharomyces pombe (strain ATCC 38366 / 972)), P50528 (parent)
chain: B1 chain
partner: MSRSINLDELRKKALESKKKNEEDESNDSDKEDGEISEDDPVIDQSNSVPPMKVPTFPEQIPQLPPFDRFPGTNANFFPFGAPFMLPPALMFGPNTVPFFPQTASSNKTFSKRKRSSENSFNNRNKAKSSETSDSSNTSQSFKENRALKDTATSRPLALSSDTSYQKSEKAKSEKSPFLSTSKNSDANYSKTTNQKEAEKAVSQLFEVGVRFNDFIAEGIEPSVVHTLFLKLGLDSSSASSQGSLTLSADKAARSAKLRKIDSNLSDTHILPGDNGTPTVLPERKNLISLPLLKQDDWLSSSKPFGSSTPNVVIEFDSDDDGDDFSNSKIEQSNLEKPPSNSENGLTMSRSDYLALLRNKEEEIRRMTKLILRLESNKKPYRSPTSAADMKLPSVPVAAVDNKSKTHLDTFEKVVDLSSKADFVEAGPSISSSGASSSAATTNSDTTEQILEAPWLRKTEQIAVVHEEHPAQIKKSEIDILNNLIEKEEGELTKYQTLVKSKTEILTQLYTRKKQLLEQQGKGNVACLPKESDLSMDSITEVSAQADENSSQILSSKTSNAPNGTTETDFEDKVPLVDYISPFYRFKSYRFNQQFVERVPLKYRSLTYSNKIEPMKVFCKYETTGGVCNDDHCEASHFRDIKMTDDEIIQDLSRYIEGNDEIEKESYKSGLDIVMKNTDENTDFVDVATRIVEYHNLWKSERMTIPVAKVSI

Variants of: B1
Conditions: with epr1_schpo epr1, O14213

| effect of a mutation on the interaction | Variant |
| --- | --- |
| disrupting interaction | I252T |
| disrupting interaction | S256P |

Second part, the variant before the results:

| Variant | effect of a mutation on the interaction |
| --- | --- |
| K251E | disrupting interaction |
| V533A | decreasing interaction |
| F493L | disrupting interaction |
| V498A | decreasing interaction |

Variants of: B2
Conditions: with bud4_schpo mid1, P78953

| effect of a mutation on the interaction | Variant |
| --- | --- |
| decreasing interaction | V498A |
| decreasing interaction | V533A |

Variants of: B3
Conditions: with apc8_schpo cut23, O94556

| effect of a mutation on the interaction | Variant |
| --- | --- |
| decreasing interaction | R605P |
| decreasing interaction | F493L |

The remaining lines, values behind:

| Variant | effect of a mutation on the interaction |
| --- | --- |
| L565F | decreasing interaction |
| V533A | decreasing interaction |

Variants of: B4
Conditions: with red1_schpo red1, Q9UTR8

| effect of a mutation on the interaction | Variant |
| --- | --- |
| decreasing interaction | V498A |

— IntAct's records for PubMed 12615979
